Target: the molecule itself
Assay: SEC; PepTSt solubilized and purified in LMNG (0.01%), final SEC step

B1: peptide transporter PepTSt from Streptococcus thermophilus (wild-type) (natural protein)
chain: MEDKGKTFFGQPLGLSTLFMTEMWERFSYYGMRAILLYYMWFLISTGDLHITRATAASIMAIYASMVYLSGTIGGFVADRIIGARPAVFWGGVLIMLGHIVLALPFGASALFGSIILIIIGTGFLKPNVSTLVGTLYDEHDRRRDAGFSIFVFGINLGAFIAPLIVGAAQEAAGYHVAFSLAAIGMFIGLLVYYFGGKKTLDPHYLRPTDPLAPEEVKPLLVKVSLAVAGFIAIIVVMNLVGWNSLPAYINLLTIVAIAIPVFYFAWMISSVKVTSTEHLRVVSYIPLFIAAVLFWAIEEQGSVVLATFAAERVDSSWFPVSWFQSLNPLFIMLYTPFFAWLWTAWKKNQPSSPTKFAVGLMFAGLSFLLMAIPGALYGTSGKVSPLWLVGSWALVILGEMLISPVGLSVTTKLAPKAFNSQMMSMWFLSSSVGSALNAQLVTLYNAKSEVAYFSYFGLGSVVLGIVLVFLSKRIQGLMQGVE
notes: PepTSt, major facilitator superfamily peptide transporter of Streptococcus thermophilus; Dimer in LMNG and DDM, monomer in DM and NM; also called Ce27; source: Escherichia coli C41, membrane solubilization, purified (IMAC, SEC) in DDM, DM, NM or LMNG; not shown: hexahistidine, C-terminal, cleaved
- stoichiometry N: 2
